Assay [1] addresses T1, human epidermal growth factor receptor 2 (HER2) extracellular domain (human, UniProt P04626 23-629). The assay can be described thus: SPR, table row 28. Background: SPR reads the build-up and loss of mass on a sensor chip optically.
The target in assay [2] is T1, human epidermal growth factor receptor …. The experiment in a line: SPR, table row 40.
The target of assay [3] is T2, human vascular endothelial growth factor A (VEGF-A) (human, UniProt P15692 220-313).
T2 sequence: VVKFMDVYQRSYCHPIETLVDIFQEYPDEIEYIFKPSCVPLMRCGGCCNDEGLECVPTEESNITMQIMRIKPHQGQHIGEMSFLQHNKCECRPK
The assay can be described thus: SPR, Fab format.

In assay [4] the target is T1, human epidermal growth factor receptor …. The assay can be described thus: SPR, table row 25.
Assay [5] has the same target. The experiment in a line: SPR, table row 39.
Assay [6] has the same target. The experiment in a line: SPR, table row 42.
Assay [7] has the same target. The assay can be described thus: SPR, table row 38.
For assay [8] the target is unchanged. The experiment in a line: SPR, table row 32.
The target is the same in assay [9]. The assay can be described thus: SPR, table row 35.
Assay [10] shares this target. The experiment in a line: SPR, table row 30.
For assay [11] the target is unchanged. The experiment in a line: SPR, table row 34.
Assay [12] has the same target. The experiment in a line: SPR, table row 7.
The target is the same in assay [13]. The experiment in a line: SPR, table row 33.

Kd, koff and kon data for seven molecules are collected here from US20250218531A1 (ABSCI, published 2025).

In general, Kd refers to the constant that tells how readily two partners part at equilibrium. The low end stands for tighter binding, the high end for weaker binding. For orientation: koff means the rate constant with which the complex falls apart. As a reminder, the kon is the rate constant with which the complex forms. Higher therefore signals faster complex formation.

Residue numbers refer to the chain shown, from its start.

B1: Trast_Her2_76 (Fab, V domains shown)
VH: EVQLVESGGGLVQPGGSLRLSCAASGFNIKDTYIHWVRQAPGKGLEWVARIYPTNGYTRYADSVKGRFTISADTSKNTAYLQMNSLRAEDTAVYYCAMDFKFTRLDLWGQGTLVTVSS
VL: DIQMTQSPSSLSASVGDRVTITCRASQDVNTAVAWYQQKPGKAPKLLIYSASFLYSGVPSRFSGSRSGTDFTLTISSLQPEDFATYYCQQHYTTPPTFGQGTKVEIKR
notes: also called HCDR3 AMDFKFTRLDL
For B1, in assay [1], binding was characterised by a dissociation constant (Kd) of 36.4 nM, the off-rate (koff) is 0.00127 s⁻¹ and the on-rate (kon) was 35000 M⁻¹ s⁻¹. Besides, in assay [2], the affinity, expressed as Kd, was 159 nM; the koff was found to be 0.00525 s⁻¹; the kon was 33100 M⁻¹ s⁻¹.

B2: De novo ranibizumab HCDR3 variant ASGNFSYPDDYGMDW (SEQ ID NO: 50) (Fab, V domains shown)
VH: EVQLVESGGGLVQPGGSLRLSCAASGYDFTHYGMNWVRQAPGKGLEWVGWINTYTGEPTYAADFKRRFTFSLDTSKSTAYLQMNSLRAEDTAVYYCASGNFSYPDDYGMDWWGQGTLVTVSS
VL: DIQLTQSPSSLSASVGDRVTITCSASQDISNYLNWYQQKPGKAPKVLIYFTSSLHSGVPSRFSGSGSGTDFTLTISSLQPEDFATYYCQQYSTVPWTFGQGTKVEIKR
B2 displayed a Kd in assay [3] of 48.2 nM.

B3: Trast_Her2_229 (Fab, V domains shown)
VH: EVQLVESGGGLVQPGGSLRLSCAASGFNIKDTYIHWVRQAPGKGLEWVARIYPTNGYTRYADSVKGRFTISADTSKNTAYLQMNSLRAEDTAVYYCARFDRYGYYLGTWGQGTLVTVSS
VL: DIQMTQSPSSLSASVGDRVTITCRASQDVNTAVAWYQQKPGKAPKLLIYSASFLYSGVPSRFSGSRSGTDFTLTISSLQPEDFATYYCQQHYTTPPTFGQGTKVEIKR
notes: also called HCDR3 ARFDRYGYYLGT
In assay [4], B3 had a Kd of 30.4 nM, a koff of 0.000635 s⁻¹ and a kon of 20900 M⁻¹ s⁻¹. Moreover, in assay [5], the Kd came to 114 nM, the koff was 0.00201 s⁻¹ and the kon was found to be 17700 M⁻¹ s⁻¹.

B4: Trast_Her2_230 (Fab, V domains shown)
VH: B3 VH
VL: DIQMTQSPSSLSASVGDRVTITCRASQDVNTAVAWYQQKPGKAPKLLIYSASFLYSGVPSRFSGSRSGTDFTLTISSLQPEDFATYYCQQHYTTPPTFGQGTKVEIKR
notes: as for B3
For B4, in assay [6], binding was characterised by a dissociation constant (Kd) of 198 nM, the koff was determined as 0.0046 s⁻¹ and the kon was 23300 M⁻¹ s⁻¹. In [7], this molecule returned a Kd of 104 nM, an off-rate constant (koff) of 0.0023 s⁻¹ and a kon of 22100 M⁻¹ s⁻¹.

B5: Trast_Her2_59 (Fab, V domains shown)
VH: B3 VH with R98K, F99R, D100N, R101A, G103R, Y104G, Y105S, G107D, T108Y
VL: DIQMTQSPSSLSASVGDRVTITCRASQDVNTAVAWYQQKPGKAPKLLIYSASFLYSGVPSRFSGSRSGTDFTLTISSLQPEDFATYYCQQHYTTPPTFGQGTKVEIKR
notes: also called HCDR3 AKRNAYRGSLDY
In [8], B5 had a Kd of 51.1 nM, a koff of 0.000717 s⁻¹ and an association rate constant (kon) of 14000 M⁻¹ s⁻¹. For the same molecule, in assay [9], the Kd is 64.9 nM, the koff came out at 0.00077 s⁻¹ and the kon is 11900 M⁻¹ s⁻¹.

B6: Trast_Her2_231 (Fab, V domains shown)
VH: B3 VH with D100G, R101I, Y102S, L106W, G107D, T108V
VL: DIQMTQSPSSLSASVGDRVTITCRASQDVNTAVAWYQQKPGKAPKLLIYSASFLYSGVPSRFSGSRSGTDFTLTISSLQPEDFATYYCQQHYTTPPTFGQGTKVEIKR
notes: also called HCDR3 ARFGISGYYWDV
Regarding B6, in assay [10], the Kd stood at 43.3 nM, the koff is 0.00106 s⁻¹ and the kon stood at 24500 M⁻¹ s⁻¹. Further, in assay [11], binding was put at a Kd of 64.4 nM, the koff stood at 0.0014 s⁻¹ and the kon came to 21800 M⁻¹ s⁻¹.

B7: Trast_Her2_56 (Fab, V domains shown)
VH: B3 VH with R98K, F99P, D100Y, R101Y, Y102F, G103N, Y105D, T108V
VL: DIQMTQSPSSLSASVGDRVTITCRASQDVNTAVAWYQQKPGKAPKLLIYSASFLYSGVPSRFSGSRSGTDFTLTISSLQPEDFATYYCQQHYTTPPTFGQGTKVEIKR
notes: also called HCDR3 AKPYYFNYDLGV
In assay [12], B7 gave a Kd of 2.44 nM, a dissociation rate constant (koff) of 2.42e-05 s⁻¹ and a kon of 9940 M⁻¹ s⁻¹. In assay [13], this molecule had a Kd of 56.8 nM, a koff of 0.000933 s⁻¹ and a kon of 16400 M⁻¹ s⁻¹.
